Experimental data reported in patent publication US20210015937A1 (CRESCENDO BIOLOGICS, published 2021).
Several values for one entry are separate records, joined by “and”; a condition that tells them apart may be missing. Identical values can stand only once. Each block holds one binder with its values, some of them ahead of it.

Legend:
[1] = molecular target: T1, recombinant human LAG-3-Fc (human, UniProt P18627 23-450); experiment: BLI (Octet); human LAG-3-Fc amine-coupled to biosensor, VH in solution, 1:1 fit
T1 construct: also called human LAG-3 (R&D Systems cat no. 2319-L3); LAG3 antigen
T1 sequence: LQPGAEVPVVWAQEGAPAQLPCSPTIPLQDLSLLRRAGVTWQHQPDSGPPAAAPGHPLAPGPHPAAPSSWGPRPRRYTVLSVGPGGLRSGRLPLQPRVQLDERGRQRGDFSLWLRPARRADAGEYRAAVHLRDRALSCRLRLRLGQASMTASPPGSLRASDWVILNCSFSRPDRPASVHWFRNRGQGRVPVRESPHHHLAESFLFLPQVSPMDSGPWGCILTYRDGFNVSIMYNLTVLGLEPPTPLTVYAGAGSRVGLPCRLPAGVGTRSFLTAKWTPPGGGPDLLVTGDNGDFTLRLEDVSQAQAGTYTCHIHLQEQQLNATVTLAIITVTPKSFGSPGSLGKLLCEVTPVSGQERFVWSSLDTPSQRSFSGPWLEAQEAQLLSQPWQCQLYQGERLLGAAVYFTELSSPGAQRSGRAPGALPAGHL
Protocol: Binding kinetics were measured in real-time bio-layer interferometer based biosensor Octet (ForteBio). […] All the binding studies were performed in HBS-ET Octet kinetics buffer. Biosensors were washed in Octet kinetics buffer in between different steps. A seven point, two-fold dilution series of each Humabody® VH was made with a top concentration of 1.6 μM. The contact time for each of the association steps was 150 seconds and the dissociation step was 300-400 seconds. Kinetic association (kₐ) and dissociation (kd) rate constants were determined by processing and fitting the data to a 1:1 binding model using ForteBio Analysis software.

[2] = molecular target: T2, Rhesus monkey LAG-3 (used as cynomolgus LAG-3) (Rhesus monkey (called cynomolgus in the …)); experiment: ELISA, coated antigen, VH at 10 µg/ml, anti-HIS HRP
T2 construct: extracellular domain
Protocol: (§1) To screen specificity by ELISA, antigens were coated at 1-5 ug/ml and blocked with Marvel milk powder. VH were added at 10 μg/ml and incubated for 1 hour. After washing, HRP-conjugated anti-HIS antibody (Miltenyi cat no. 130-092-785) was added. TMB substrate and acidic solution were used to develop colorimetric signal.

[3] = molecular target: T1, recombinant human LAG-3-Fc; experiment: as above
Protocol: as §1

[4] = molecular target: T3, human LAG-3 domains 1-2-Fc (human, UniProt P18627 23-261, limits assumed); experiment: as above
T3 construct: Domains were identified as per Huard et al 1997 PNAS 94:5744-9; also called truncated LAG-3
T3 sequence: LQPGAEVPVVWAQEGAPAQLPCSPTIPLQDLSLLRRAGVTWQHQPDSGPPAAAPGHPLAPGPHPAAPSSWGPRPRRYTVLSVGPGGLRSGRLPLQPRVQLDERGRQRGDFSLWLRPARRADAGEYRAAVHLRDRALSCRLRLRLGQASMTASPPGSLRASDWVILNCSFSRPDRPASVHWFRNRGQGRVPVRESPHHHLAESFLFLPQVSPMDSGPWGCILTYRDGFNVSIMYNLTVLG
Protocol: as §1

[5] = molecular target: T2, Rhesus monkey LAG-3 (used as cynomolgus …); experiment: BLI (Octet); cynomolgus LAG-3 immobilised on ARG2 sensors, 1:1 fit
Protocol: (§2) Binding kinetics for multi-valent and bispecific VH were also measured in real-time bio-layer interferometer based biosensor Octet (ForteBio). […] All the binding studies were performed in HBS-ET Octet kinetics buffer. Biosensors were washed in Octet kinetics buffer in between different steps. […] The contact time for each of the association steps was 150 seconds and the dissociation step was 400 seconds. […] To compare the constructs, kinetic association (kₐ) and dissociation (kd) rate constants were determined by processing and fitting the data to a 1:1 binding model using ForteBio Analysis software.

[6] = molecular target: T1, recombinant human LAG-3-Fc; experiment: competition ELISA; LAG-3-Fc pre-incubated with VH, binding to coated LSECtin
Source text: (§3) The plate was blocked with 3% Marvel skimmed milk powder in PBS. […] Wash steps were done 3 times with PBS 0.05% Tween. Colour was developed using TMB and 0.5M sulphuric acid solution.

[7] = molecular target: T3, human LAG-3 domains 1-2-Fc; experiment: BLI (Octet); human LAG-3 domains 1-2-Fc captured on protein G biosensors, 1:1 fit
Protocol: as §2

[8] = molecular target: T1, recombinant human LAG-3-Fc; experiment: competition ELISA; LAG-3-Fc pre-incubated with VH, binding to coated alpha-synuclein
Source text: as §3

CD4 [9] = molecular target: T4, CD4 (UniProt P01730 26-390); experiment: ELISA, coated antigen, anti-HIS HRP detection
T4 construct: also called CD4 (R&D Biotechne 514-CD)
Protocol: as §1

mouse LAG-3 = molecular target: T5, mouse LAG-3 (mouse, UniProt Q61790 24-442); experiment: ELISA, coated antigen, anti-HIS HRP detection
T5 construct: The construct is not described; also called mouse LAG-3 (Sino Biological cat no 53069-M02H); Mouse LAG3 (R&D Biotechne cat 3328-L3)
T5 sequence (looked up): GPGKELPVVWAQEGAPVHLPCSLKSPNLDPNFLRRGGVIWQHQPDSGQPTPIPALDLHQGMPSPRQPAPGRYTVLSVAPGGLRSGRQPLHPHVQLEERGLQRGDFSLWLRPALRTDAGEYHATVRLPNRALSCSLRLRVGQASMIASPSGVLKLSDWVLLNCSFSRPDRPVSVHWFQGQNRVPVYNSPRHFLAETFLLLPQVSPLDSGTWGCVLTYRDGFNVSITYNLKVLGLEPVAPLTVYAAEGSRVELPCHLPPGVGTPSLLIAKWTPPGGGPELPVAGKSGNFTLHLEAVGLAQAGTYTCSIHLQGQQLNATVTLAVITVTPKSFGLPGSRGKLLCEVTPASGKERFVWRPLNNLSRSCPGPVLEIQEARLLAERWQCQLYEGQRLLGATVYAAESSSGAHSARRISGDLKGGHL
Protocol: as §1

[10] = molecular target: T6, human LAG-3 expressed on cells (human, UniProt P18627 23-525); experiment: cell-based or functional assay
T6 sequence: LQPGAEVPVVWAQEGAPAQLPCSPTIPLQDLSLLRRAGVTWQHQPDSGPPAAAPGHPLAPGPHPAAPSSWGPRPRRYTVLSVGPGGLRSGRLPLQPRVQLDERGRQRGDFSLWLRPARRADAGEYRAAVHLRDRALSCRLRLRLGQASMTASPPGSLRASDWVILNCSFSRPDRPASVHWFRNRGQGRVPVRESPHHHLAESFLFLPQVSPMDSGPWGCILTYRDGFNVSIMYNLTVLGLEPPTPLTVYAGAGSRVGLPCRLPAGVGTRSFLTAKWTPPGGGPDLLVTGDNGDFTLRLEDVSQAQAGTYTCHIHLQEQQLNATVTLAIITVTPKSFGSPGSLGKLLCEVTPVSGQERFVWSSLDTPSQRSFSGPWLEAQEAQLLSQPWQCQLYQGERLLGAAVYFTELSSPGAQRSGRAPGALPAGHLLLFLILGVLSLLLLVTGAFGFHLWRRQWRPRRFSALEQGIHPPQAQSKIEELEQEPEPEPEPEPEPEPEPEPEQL

[11] = molecular target: T1, recombinant human LAG-3-Fc; experiment: BLI (Octet); human LAG-3-Fc captured on protein G biosensors, 1:1 fit
Protocol: as §2

[12] = molecular target: T6, human LAG-3 expressed on cells; experiment: FMAT (Mirrorball) binding to CHO human LAG-3 cells, anti-His detection
Source text: Plates were read in the FL2 (502 nm-537 nm) and FL5 (677-800 nm) channels on the TTP Mirrorball plate reader following excitation at 488 nm and 640 nm. Data was gated on FL5 perimeter and peak intensity and the FL2 median mean fluorescence intensity of the gated data used for determination of VH binding.

CD28 = CD28 (Homo sapiens (Human), UniProt P10747 19-152); experiment: BLI (Octet)
CD4 [13] = molecular target: T4, CD4; experiment: BLI (Octet)
CTLA4 = CTLA4 (Homo sapiens (Human), UniProt P16410 36-161); experiment: BLI (Octet)
Sequence of CTLA4 (P16410 36-161 limits assumed): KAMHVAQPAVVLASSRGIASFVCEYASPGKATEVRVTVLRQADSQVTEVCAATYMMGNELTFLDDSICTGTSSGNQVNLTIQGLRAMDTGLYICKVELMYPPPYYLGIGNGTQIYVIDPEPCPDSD

[14] = molecular target: T7, human PD-1 expressed on cells (human, UniProt Q15116 25-288); experiment: cell-based or functional assay
T7 sequence (Q15116 25-288 limits assumed): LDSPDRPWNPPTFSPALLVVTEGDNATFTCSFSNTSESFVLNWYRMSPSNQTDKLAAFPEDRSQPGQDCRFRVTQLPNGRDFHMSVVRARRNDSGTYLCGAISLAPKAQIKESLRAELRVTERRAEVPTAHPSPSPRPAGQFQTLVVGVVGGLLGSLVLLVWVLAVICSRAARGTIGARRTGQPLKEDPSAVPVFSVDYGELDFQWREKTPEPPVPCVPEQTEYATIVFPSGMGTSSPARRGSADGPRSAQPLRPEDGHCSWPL

[15] = molecular target: human LAG-3 and human PD-1 co-expressed on the surface of cells (DiscoverX cell line) (human); experiment: cell-based or functional assay
Sequence of human LAG-3 and human PD-1 co-expressed on the surface of cells (DiscoverX cell line) (human) (Q15116 25-288): as the sequence (Q15116 25-288 limits assumed) above

[16] = molecular target: T1, recombinant human LAG-3-Fc; experiment: switchSENSE; LAG3 and PD1 both on the surface, LAG3 channel (avidity)
Protocol: (§4) The antigens were covalently attached to the biosensor surface using amine-coupling method, each antigen was linked to a different nanolever, with red or green fluorescent tag. Binding of a bispecific construct was measured to individual antigens alone or where both antigens were present on the surface simultaneously.

[17] = molecular target: T7, human PD-1 expressed on cells; experiment: cell-based or functional assay; remark: listed apart in the source
Cynomolgus PD1 = Cynomolgus PD1 (cynomolgus, UniProt B0LAJ3 25-170); experiment: BLI (Octet); PD1 antigen captured on Protein G sensors
Sequence of Cynomolgus PD1 (B0LAJ3 entry or part of it limits assumed): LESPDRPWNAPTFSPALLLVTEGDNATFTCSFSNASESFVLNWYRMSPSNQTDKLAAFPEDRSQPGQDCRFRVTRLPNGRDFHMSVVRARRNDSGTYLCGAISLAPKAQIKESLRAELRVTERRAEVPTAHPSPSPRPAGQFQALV

[18] = molecular target: T8, recombinant human PD-1 Fc chimera (human, UniProt Q15116 25-167); experiment: as above
T8 construct: Bought Fc chimera; also called human PD-1 (R&D systems cat no. 1086-PD); PD1 antigen
T8 sequence (Q15116 25-167 limits assumed, change not shown): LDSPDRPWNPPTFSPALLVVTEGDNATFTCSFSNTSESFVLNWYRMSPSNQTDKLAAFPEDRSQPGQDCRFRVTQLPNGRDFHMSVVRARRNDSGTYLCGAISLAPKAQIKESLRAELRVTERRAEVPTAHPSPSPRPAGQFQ

[19] = molecular target: T8, recombinant human PD-1 Fc chimera; experiment: switchSENSE (Dynamic Biosensors); PD1 alone on the surface, PD1 channel
Protocol: as §4

[20] = molecular target: T2, Rhesus monkey LAG-3 (used as cynomolgus …); experiment: BLI (Octet); LAG3 antigen amine-coupled to ARG2 sensors
[21] = molecular target: T1, recombinant human LAG-3-Fc; experiment: as above
[22] = molecular target: T1, recombinant human LAG-3-Fc; experiment: switchSENSE; LAG3 and PD1 both on the surface, LAG3 channel (avidity); LAG3 and PD1 as ligand antigens, LAG3 detection channel
Protocol: as §4

[23] = molecular target: T1, recombinant human LAG-3-Fc; experiment: switchSENSE (Dynamic Biosensors); LAG3 alone on the surface, LAG3 channel
Protocol: as §4

[24] = molecular target: T8, recombinant human PD-1 Fc chimera; experiment: switchSENSE; LAG3 and PD1 both on the surface, PD1 channel (avidity)
Protocol: as §4

Kd [1]: 31.3 nM
koff [1]: 0.00089 s⁻¹
kon [1]: 26200 M⁻¹ s⁻¹
ELISA signal over background [2]: > 10 fold over background
ELISA signal over background [3]: > 10 fold over background
ELISA signal over background [4]: > 10 fold over background
Kd [5]: 25.6 nM
koff [5]: 0.000222 s⁻¹
kon [5]: 8650 M⁻¹ s⁻¹
IC50 [6]: 210 nM
Kd [7]: 67.5 nM
koff [7]: 0.0011 s⁻¹
kon [7]: 16200 M⁻¹ s⁻¹
IC50 [8]: 45 nM
binding result (CD4 [9]): no binding (tested: 10 µg/ml VH)
binding result (mouse LAG-3): no binding (tested: 10 µg/ml VH)
EC50 (M), NFAT-Luciferase Reporter Gene assay (LAG-3:MHCII) [10]: > 3.3e-07 M
Kd [11]: 32.6 nM
koff [11]: 0.000905 s⁻¹
kon [11]: 27800 M⁻¹ s⁻¹
EC50 [12]: 1.8 nM
B1: VH 1.1 (VHH)
VHH: EVQLVESGGGVVRPGGSLRLSCSASGFTFDDYGMSWVRQAPGKGLEWVSGIHWNGGNSGYADSVKGRFTISRDNAKNSLYLQMNSLRAEDTALYYCARIPREDCSSASCYTDAIDFWGPGTMVTVSS
notes: Human VH single domain antibody (Humabody) against LAG-3; also called VH single domain antibody 1.1; monovalent LAG-3 VH 1.1

binding result (CD28): no binding
binding result (CD4 [13]): no binding
binding result (CTLA4): no binding
potency in the PD-1:PD-L1 NFAT-luciferase reporter assay, fold lower than monoclonal antibodies [14]: > 30 fold
EC50 (M) (n = 2), enzyme fragment complementation on LAG-3/PD-1 cells [15]: 5.5e-11 M and 7.6e-11 M
Kd [16]: 0.0207 nM
EC50 (M), NFAT-Luciferase Reporter Gene assay (PD-1:PD-L1) [17]: 4.6e-08 M
Kd (Cynomolgus PD1): 4.36 nM
koff (Cynomolgus PD1): 0.000685 s⁻¹
kon (Cynomolgus PD1): 157000 M⁻¹ s⁻¹
Kd [18]: 2.94 nM
koff [18]: 0.000665 s⁻¹
kon [18]: 226000 M⁻¹ s⁻¹
Kd [19]: 4.4 nM
koff [19]: 0.000488 s⁻¹
kon [19]: 110000 M⁻¹ s⁻¹
Kd [20]: 1.32 nM
koff [20]: 0.000184 s⁻¹
kon [20]: 140000 M⁻¹ s⁻¹
Kd [21]: 1.42 nM
koff [21]: 0.000206 s⁻¹
kon [21]: 145000 M⁻¹ s⁻¹
EC50 (M), NFAT-Luciferase Reporter Gene assay (LAG-3:MHCII) [10]: 5.9e-09 M
koff [22]: 7.51e-05 s⁻¹
kon [22]: 3.62e+06 M⁻¹ s⁻¹
Kd [23]: 1.4 nM
koff [23]: 0.000674 s⁻¹
kon [23]: 483000 M⁻¹ s⁻¹
Kd [24]: 0.041 nM
koff [24]: 8.67e-05 s⁻¹
kon [24]: 2.12e+06 M⁻¹ s⁻¹
B2: VH1.2-6GS-VH1.2-6GS-VH2.92-His6 (bispecific antibody)
chain: EVQLVESGGGVVRPGGSLRLSCAASGFTFDDYGMSWVRQAPGKGLEWVSGIHWNGGSTGYADSVKGRFTISRDNAKNSLYLQMNSLRAEDTALYYCARIPREDCSSASCYTDAIDFWGQGTMVTVSSGGGGSGGGGSGGGGSGGGGSGGGGSGGGGSEVQLVESGGGVVRPGGSLRLSCAASGFTFDDYGMSWVRQAPGKGLEWVSGIHWNGGSTGYADSVKGRFTISRDNAKNSLYLQMNSLRAEDTALYYCARIPREDCSSASCYTDAIDFWGQGTMVTVSSGGGGSGGGGSGGGGSGGGGSGGGGSGGGGSEVQLVESGGGLVKPGGSLRLSCAASGFTFSDESMTWMRQAPGKGLEWVSYISSGGGVKFYADSVKGRFTISRDNAKNSLYLQMNSLRAEDTAVYYCAREAPLRLGESPHDAFDISGQGTMVTVSSAAAHHHHHH
notes: 259 is the same construct without the tag; also called 1.2-6GS-1.2-6GS-2.92; the bispecific
